Reference: paper PMC10462622 (Nature Communications, 2023)

Key:
[1] = biological target: T1, near-full-length human CUL5 (residues 12-780) (human, UniProt Q93034 12-780); test: cryo-EM structure; conditions: both partners purified
T1 construct: not shown: GB1, N-terminal, cleaved
T1 sequence: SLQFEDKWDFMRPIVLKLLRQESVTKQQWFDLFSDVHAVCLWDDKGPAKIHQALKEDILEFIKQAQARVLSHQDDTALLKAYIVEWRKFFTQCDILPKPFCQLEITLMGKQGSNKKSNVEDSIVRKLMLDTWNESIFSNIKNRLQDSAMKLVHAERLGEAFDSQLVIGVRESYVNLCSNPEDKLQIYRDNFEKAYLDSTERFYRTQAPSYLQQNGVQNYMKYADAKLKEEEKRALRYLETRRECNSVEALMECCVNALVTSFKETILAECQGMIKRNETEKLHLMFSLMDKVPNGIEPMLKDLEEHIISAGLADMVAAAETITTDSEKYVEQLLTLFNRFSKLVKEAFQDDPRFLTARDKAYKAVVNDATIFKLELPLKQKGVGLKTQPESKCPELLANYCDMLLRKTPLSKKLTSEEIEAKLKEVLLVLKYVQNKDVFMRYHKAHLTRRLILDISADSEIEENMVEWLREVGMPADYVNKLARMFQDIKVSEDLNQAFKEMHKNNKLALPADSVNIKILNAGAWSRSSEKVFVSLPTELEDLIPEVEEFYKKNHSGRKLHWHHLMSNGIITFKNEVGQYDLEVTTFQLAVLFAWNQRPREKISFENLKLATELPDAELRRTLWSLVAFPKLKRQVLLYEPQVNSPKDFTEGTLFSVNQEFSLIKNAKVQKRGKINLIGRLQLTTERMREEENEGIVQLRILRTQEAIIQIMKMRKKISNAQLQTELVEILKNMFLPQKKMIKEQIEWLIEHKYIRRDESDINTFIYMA

[2] = biological target: T2, HIV-1 NL4-3 Vif N48H (residues 1-176) (HIV-1 (pNL4-3), UniProt P12504 1-176, N48H); test: cryo-EM structure; conditions: both partners purified
T2 construct: also called N48H Vif; N48H NL4-3 Vif

B1: human RBX2 (residues 1-113) (natural protein)
chain: MADVEDGEETCALASHSGSSGSKSGGDKMFSLKKWNAVAMWSWDVECDTCAICRVQVMDACLRCQAENKQEDCVVVWGECNHSFHNCCMSLWVKQNNRCPLCQQDWVVQRIGK
notes: also called RING-box protein 2; source: E. coli BL21(DE3), co-expressed with GB1-CUL5 (pETDuet-1), purified as CUL5/RBX2 complex (Ni-NTA, SEC)
binding result [1]: binds

B2: human CBF-β (residues 1-156) (domain or fragment)
chain: MPRVVPDQRSKFENEEFFRKLSRECEIKYTGFRDRPHEERQARFQNACRDGRSEIAFVATGTNLSLQFFPASWQGEQRQTPSREYVDLEREAGKVYLKAPMILNGVCVIWKGWIDLQRLDGMGCLEFDEERAQQEDALAQQAFEEARRRTREFEDR
binding result [2]: binds
